Measurements reported in article PMC4601081, “A Single α Helix Drives Extensive Remodeling of the Proteasome Lid and Completion of Regulatory Particle Assembly” (Cell, 2015).
Ends that are not written are not given here.

T1: Rpn5, subunit of LP2 and lid purified from yeast (S. cerevisiae, UniProt Q12250 1-445)
T1 construct: Rpn5, S. cerevisiae proteasome lid subunit; source: purified from S. cerevisiae as part of LP2 or lid
T1 sequence (looked up): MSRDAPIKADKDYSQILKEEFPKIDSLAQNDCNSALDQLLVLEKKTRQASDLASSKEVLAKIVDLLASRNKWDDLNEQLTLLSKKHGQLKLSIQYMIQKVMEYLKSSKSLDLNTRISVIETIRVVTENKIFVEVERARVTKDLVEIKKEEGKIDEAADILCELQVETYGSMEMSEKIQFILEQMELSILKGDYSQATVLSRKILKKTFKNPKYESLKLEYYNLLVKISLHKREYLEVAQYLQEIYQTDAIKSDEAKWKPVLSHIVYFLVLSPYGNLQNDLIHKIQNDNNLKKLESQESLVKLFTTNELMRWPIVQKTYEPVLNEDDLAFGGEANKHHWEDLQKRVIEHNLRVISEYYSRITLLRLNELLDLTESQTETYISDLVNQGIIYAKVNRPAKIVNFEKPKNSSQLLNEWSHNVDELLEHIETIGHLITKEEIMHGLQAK

T2: Rpn6, subunit of LP2 and lid purified from yeast (S. cerevisiae, UniProt Q12377 1-434)
T2 construct: Rpn6, S. cerevisiae proteasome lid subunit; Also stands as the whole protein for the region row on the E. coli truncations; source: purified from S. cerevisiae as part of LP2 or lid
T2 sequence (looked up): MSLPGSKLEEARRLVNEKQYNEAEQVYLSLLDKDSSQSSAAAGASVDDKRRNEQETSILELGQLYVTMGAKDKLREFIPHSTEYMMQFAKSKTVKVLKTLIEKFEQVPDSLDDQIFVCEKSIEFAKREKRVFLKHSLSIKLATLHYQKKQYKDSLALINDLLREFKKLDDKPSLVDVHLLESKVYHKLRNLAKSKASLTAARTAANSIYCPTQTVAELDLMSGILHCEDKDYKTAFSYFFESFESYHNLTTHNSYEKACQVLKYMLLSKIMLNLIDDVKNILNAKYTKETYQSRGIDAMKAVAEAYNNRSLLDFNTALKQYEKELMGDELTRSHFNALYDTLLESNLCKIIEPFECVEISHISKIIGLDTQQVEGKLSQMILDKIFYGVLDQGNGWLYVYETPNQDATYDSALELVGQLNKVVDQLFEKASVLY

T3: Rpn9, subunit of LP2 and lid purified from yeast (S. cerevisiae, UniProt Q04062 1-393)
T3 construct: Rpn9, S. cerevisiae proteasome lid subunit; source: purified from S. cerevisiae as part of LP2 or lid
T3 sequence (looked up): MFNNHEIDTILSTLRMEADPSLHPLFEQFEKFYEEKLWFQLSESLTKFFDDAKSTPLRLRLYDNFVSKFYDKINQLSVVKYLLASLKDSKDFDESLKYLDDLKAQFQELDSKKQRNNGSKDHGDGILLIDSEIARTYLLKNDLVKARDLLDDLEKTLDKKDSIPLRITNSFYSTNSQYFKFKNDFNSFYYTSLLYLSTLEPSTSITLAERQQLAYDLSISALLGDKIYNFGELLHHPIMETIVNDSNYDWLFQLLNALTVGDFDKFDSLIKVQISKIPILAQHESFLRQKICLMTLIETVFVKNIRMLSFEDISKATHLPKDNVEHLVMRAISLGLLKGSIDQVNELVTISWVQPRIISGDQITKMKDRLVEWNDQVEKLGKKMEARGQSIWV

T4: Rpn3, subunit of LP2 and lid purified from yeast (S. cerevisiae, UniProt P40016 1-523)
T4 construct: Rpn3, S. cerevisiae proteasome lid subunit; source: purified from S. cerevisiae as part of LP2 or lid
T4 sequence (looked up): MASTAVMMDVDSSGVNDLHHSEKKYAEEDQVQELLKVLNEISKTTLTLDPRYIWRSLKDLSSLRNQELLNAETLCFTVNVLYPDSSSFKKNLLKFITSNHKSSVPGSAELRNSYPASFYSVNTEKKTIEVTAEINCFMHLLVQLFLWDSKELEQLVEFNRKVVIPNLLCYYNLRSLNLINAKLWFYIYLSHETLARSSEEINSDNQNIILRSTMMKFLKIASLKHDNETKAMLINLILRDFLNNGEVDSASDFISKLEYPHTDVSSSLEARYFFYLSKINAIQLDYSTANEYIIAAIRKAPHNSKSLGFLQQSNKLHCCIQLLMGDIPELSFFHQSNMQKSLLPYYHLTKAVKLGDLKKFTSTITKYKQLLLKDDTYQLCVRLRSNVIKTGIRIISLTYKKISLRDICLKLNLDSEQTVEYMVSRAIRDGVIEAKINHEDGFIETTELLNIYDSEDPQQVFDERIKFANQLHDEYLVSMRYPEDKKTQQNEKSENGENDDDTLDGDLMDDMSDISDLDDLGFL

B1: Rpn11, subunit of LP2 and lid purified from yeast (natural protein, S. cerevisiae, UniProt P43588 1-306, looked up)
chain: MERLQRLMMNSKVGSADTGRDDTKETVYISSIALLKMLKHGRAGVPMEVMGLMLGEFVDDYTVNVVDVFAMPQSGTGVSVEAVDDVFQAKMMDMLKQTGRDQMVVGWYHSHPGFGCWLSSVDVNTQKSFEQLNSRAVAVVVDPIQSVKGKVVIDAFRLIDTGALINNLEPRQTTSNTGLLNKANIQALIHGLNRHYYSLNIDYHKTAKETKMLMNLHKEQWQSGLKMYDYEEKEESNLAATKSMVKIAEQYSKRIEEEKELTEEELKTRYVGRQDPKKHLSETADETLENNIVSVLTAGVNSVAIK
notes: Rpn11, S. cerevisiae proteasome lid subunit; source: purified from S. cerevisiae as part of LP2 or lid
B2: Rpn8, subunit of LP2 and lid purified from yeast (natural protein, S. cerevisiae, UniProt Q08723 1-338, looked up)
chain: MSLQHEKVTIAPLVLLSALDHYERTQTKENKRCVGVILGDANSSTIRVTNSFALPFEEDEKNSDVWFLDHNYIENMNEMCKKINAKEKLIGWYHSGPKLRASDLKINELFKKYTQNNPLLLIVDVKQQGVGLPTDAYVAIEQVKDDGTSTEKTFLHLPCTIEAEEAEEIGVEHLLRDVRDQAAGGLSIRLTNQLKSLKGLQSKLKDVVEYLDKVINKELPINHTILGKLQDVFNLLPNLGTPDDDEIDVENHDRINISNNLQKALTVKTNDELMVIYISNLVRSIIAFDDLIENKIQNKKIQEQRVKDKQSKVSDDSESESGDKEATAPLIQRKNKKN
notes: Rpn8, S. cerevisiae proteasome lid subunit; source: purified from S. cerevisiae as part of LP2 or lid
B3: Rpn7, subunit of LP2 and lid purified from yeast (natural protein, S. cerevisiae, UniProt Q06103 1-429, looked up)
chain: MVDVEEKSQEVEYVDPTVNRVPNYEVSEKAFLLTQSKVSIEQRKEAAEFVLAKIKEEEMAPYYKYLCEEYLVNNGQSDLEHDEKSDSLNEWIKFDQELYNELCKKNESKIKELNEKIQKLEEDDEGELEQAQAWINLGEYYAQIGDKDNAEKTLGKSLSKAISTGAKIDVMLTIARLGFFYNDQLYVKEKLEAVNSMIEKGGDWERRNRYKTYYGIHCLAVRNFKEAAKLLVDSLATFTSIELTSYESIATYASVTGLFTLERTDLKSKVIDSPELLSLISTTAALQSISSLTISLYASDYASYFPYLLETYANVLIPCKYLNRHADFFVREMRRKVYAQLLESYKTLSLKSMASAFGVSVAFLDNDLGKFIPNKQLNCVIDRVNGIVETNRPDNKNAQYHLLVKQGDGLLTKLQKYGAAVRLTGSDRV
notes: Rpn7, S. cerevisiae proteasome lid subunit; source: purified from S. cerevisiae as part of LP2 or lid
B4: Rpn12, recombinant, full-length (natural protein, S. cerevisiae, UniProt P32496 1-274, looked up)
chain: MPSLAELTKSLSIAFENGDYAACEKLLPPIKIELIKNNLLIPDLSIQNDIYLNDLMITKRILEVGALASIQTFNFDSFENYFNQLKPYYFSNNHKLSESDKKSKLISLYLLNLLSQNNTTKFHSELQYLDKHIKNLEDDSLLSYPIKLDRWLMEGSYQKAWDLLQSGSQNISEFDSFTDILKSAIRDEIAKNTELSYDFLPLSNIKALLFFNNEKETEKFALERNWPIVNSKVYFNNQSKEKADYEDEMMHEEDQKTNIIEKAMDYAISIENIV
notes: Rpn12, S. cerevisiae proteasome lid subunit; also called recombinant Rpn12; purified Rpn12
B5: N12pep, fluorescently labeled peptide of the Rpn12 C-terminal helix (peptide)
peptide: DQKTNIIEKAMDYAISIENIK(5,6‑carboxyfluorescein)
notes: Rpn12, S. cerevisiae, C-terminal helix; added lysine that carries 5,6-carboxyfluorescein; also called Rpn12 C-terminal helix peptide; source: synthetic peptide (Elim Biopharmaceuticals)

Legend:
Conditions in all cases: both partners purified
[1] = biological target: T1, Rpn5, subunit of LP2 and lid purified …; assay: cross-linking; QCLMS of LP2 purified from yeast as a whole complex: BS3-d0 / BS3-d4 at 1:200 protein to cross-linker, Buffer HA, 30°C 1 h; monomeric cross-linked complex cut from SDS-PAGE, trypsin, LC-MS/MS
[2] = biological target: B2; assay: as above
[3] = biological target: T2, Rpn6, subunit of LP2 and lid purified …; assay: as above
[4] = biological target: T3, Rpn9, subunit of LP2 and lid purified …; assay: as above
[5] = biological target: T1, Rpn5, subunit of LP2 and lid purified …; assay: cross-linking; QCLMS of lid purified from yeast as a whole complex: BS3-d0 / BS3-d4 at 1:200 protein to cross-linker, Buffer HA, 30°C 1 h; monomeric cross-linked complex cut from SDS-PAGE, trypsin, LC-MS/MS
[6] = biological target: T4, Rpn3, subunit of LP2 and lid purified …; assay: cross-linking; QCLMS of LP2 purified from yeast as a whole complex: BS3-d0 / BS3-d4 at 1:200 protein to cross-linker, Buffer HA, 30°C 1 h; monomeric cross-linked complex cut from SDS-PAGE, trypsin, LC-MS/MS
[7] = biological target: T5, lid particle 2 (LP2), recombinant (S. cerevisiae, UniProt P40016 1-523; Q12250 1-445; Q12377 1-434; Q06103 1-429; Q08723 1-338; Q04062 …); assay: negative-stain EM; purified recombinant LP2 treated with an equimolar concentration of recombinant Rpn12; 2D class averages
T5 construct: Rpn3, S. cerevisiae proteasome lid subunit; Rpn5, S. cerevisiae proteasome lid subunit; Rpn6, S. cerevisiae proteasome lid subunit; Rpn7, S. cerevisiae proteasome lid subunit; Rpn8, S. cerevisiae proteasome lid subunit; Rpn9, S. cerevisiae proteasome lid subunit; Rpn11, S. cerevisiae proteasome lid subunit; Sem1, S. cerevisiae proteasome lid subunit; legends speak of 'untagged LP2'; operons as in …

[8] = biological target: T5, lid particle 2 (LP2), recombinant; assay: fluorescence polarisation; fluorescence anisotropy: 1 uM fluorescein-labelled N12pep in Lid Buffer alone, with 1 uM LP2, 5 uM Rpn12, or both; 25°C 20 min; excitation 485 nm, emission 513-528 nm

T5 sequence (O94742 whole entry, chain 8 of 3, one chain of several, further chain): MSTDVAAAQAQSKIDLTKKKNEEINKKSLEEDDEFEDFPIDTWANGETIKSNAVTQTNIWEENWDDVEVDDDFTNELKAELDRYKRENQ

Binder: B1
binding result [1]: binds
binding result [2]: binds

Binder: B2
binding result [3]: binds
binding result [4]: binds
binding result [5]: binds

Binder: B3
binding result [6]: binds

Binder: B4
binding result [7]: binds

Binder: B5
binding result [8]: binds
